According to patent US20220348651A1, “ENTPD2 ANTIBODIES, COMBINATION THERAPIES, AND METHODS OF USING THE ANTIBODIES AND COMBINATION THERAPIES” (Novartis AG, priority 2019, published 2022):

Key:
mouse ENTPD2 = biological target: T1, mouse ENTPD2 (Mus musculus, UniProt O55026); assay: Antibody specificity: binding to mouse ENTPD2; conditions: for BIACore KD: Mouse ENTPD2
T1 construct: residues 29-462 of mouse or rat ENTPD2 (the extracellular domain); mouse IgK signal peptide (N); His6; made in house; host or cells: FreeStyle 293-F cells, transient transfection
T1 sequence (O55026 29-462): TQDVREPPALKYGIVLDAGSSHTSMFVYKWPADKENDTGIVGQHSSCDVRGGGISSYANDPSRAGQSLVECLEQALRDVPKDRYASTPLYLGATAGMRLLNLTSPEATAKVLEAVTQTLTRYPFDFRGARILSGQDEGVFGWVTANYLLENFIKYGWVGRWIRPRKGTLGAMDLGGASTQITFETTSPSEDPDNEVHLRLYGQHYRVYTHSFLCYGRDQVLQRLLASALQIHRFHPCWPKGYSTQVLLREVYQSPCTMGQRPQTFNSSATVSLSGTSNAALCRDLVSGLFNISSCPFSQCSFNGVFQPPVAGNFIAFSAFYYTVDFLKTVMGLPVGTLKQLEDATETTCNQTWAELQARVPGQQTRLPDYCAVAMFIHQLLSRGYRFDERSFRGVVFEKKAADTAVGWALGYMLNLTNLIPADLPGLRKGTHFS
From the text: Antibody specificity for mAbl-mAblO was confirmed. […] Antibodies mAb8, mAb9, and mAb10 show weak affinity to mouse ENTPD2. None of the selected antibodies bind to rat ENTPD2.

human ENTPD2 = biological target: T2, human ENTPD2 (Homo sapiens, UniProt Q9Y5L3); assay: Biacore (SPR) affinity to human ENTPD2 ECD; assay type: binding; conditions: 25° C.
T2 construct: residues 29-462 of human or cyno ENTPD2 were cloned into expression vector; GP67 signal peptide (N); made in house; host or cells: High Five (Trichoplusia ni) insect cells, baculovirus
T2 sequence (Q9Y5L3 29-462): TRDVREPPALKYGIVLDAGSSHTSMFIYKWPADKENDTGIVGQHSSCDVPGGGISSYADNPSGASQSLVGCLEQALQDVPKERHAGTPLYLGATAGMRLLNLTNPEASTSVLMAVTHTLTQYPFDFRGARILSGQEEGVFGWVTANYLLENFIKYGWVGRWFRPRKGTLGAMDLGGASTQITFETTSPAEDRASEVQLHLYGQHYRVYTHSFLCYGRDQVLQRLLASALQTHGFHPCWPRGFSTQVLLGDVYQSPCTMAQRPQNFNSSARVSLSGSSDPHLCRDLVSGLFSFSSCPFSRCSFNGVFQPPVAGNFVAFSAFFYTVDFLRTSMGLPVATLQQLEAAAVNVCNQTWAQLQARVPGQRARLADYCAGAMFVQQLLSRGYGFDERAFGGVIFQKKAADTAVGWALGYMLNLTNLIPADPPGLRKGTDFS
Protocol: (§1) Biacore Screening: Affinity was measured by determining the kinetic rate constants using surface plasmon resonance (SPR) on a Biacore T200 or T100 with the T200 sensitivity upgrade instrument (Biacore, GE Healthcare). Antibodies were captured on CM5 sensor chips (Biacore, GE Healthcare) prepared with a mouse anti-human IgG Fc antibody (ThermoFisher catalogue #05-4200) amine coupled to the surface. […] ENTPD2 analytes were allowed to associate for 180 s and dissociate for up to 1800 s depending on the off-rate of the antibody at a flow rate of 30 μL/min. The running buffer was PBS pH 7.2 (prepared from a Corning 10X stock, cat#46-013-CM)+0.05% Tween 20. Regeneration was accomplished with 30 s injections of 3 or 4 M MgCl2 to remove all the captured antibody and remaining complex from the surface, after which fresh antibody was captured. The raw data were analyzed using Biacore T200 Evaluation Software version 1.0 and fit to a 1:1 binding model, with all parameters set to fit globally except for RI, which was set to fit locally.

[1] = system: cynomologus (cyno) ENTPD2; assay: Biacore (SPR) affinity to cyno ENTPD2 ECD; assay type: binding, cynomolgus monkey; conditions: 25° C.
Protocol: as §1

Sequence of cynomologus (cyno) ENTPD2 (as listed by the source): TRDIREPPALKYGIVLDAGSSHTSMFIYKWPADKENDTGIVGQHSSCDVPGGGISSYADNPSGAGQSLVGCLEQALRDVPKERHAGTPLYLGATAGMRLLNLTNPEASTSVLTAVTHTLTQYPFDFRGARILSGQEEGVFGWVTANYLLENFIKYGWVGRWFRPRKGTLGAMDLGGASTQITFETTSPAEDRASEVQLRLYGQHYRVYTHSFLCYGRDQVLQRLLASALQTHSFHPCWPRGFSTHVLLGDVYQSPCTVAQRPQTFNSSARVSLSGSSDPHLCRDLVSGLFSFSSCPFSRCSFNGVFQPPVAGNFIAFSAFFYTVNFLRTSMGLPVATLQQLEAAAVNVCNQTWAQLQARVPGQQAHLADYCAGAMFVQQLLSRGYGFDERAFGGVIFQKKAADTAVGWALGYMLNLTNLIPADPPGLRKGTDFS

Row | Molecule | affinity / cross-reactivity to mouse ENTPD2 (mouse ENTPD2) | BIACore KD (mouse ENTPD2) | ka (human ENTPD2) | kd (human ENTPD2) | ka [1] | kd [1]
1 | mAb8: anti-human ENTPD2 antibody of Table 1; VH SEQ ID NO: 91, VL SEQ ID NO: 102 (antibody, V domains shown) VH: QVQLQQSGPGLVKPSQTLSLTCAISGDSVSSSSAAWNWIRQSPSRGLEWLGRIYYRSKWYNDYAVSVKSRITINPDTSKNQFSLQLNSVTPEDTAVYYCARGSYVTSSYEGFDYWGQGTLVTVSS VL: SYELTQPLSVSVALGQTARITCSGDNLPEKYAYWYQQKPGQAPVLVIYDDNKRPSGIPERFSGSNSGNTATLTISRAQAGDEADYYCQSYGKWGWTWVFGGGTKLTVL | weak affinity | Weak binding | 290000 M⁻¹ s⁻¹ | 0.00094 s⁻¹ | 300000 M⁻¹ s⁻¹ | 0.024 s⁻¹
2 | mAb9: anti-human ENTPD2 antibody of Table 1; VH SEQ ID NO: 115, VL SEQ ID NO: 125 (antibody, V domains shown) VH: QVQLVQSGAEVKKPGSSVKVSCKASGGTFDSYAVSWVRQAPGQGLEWMGRIVPWLGHTQYAQKFQGRVTITADESTSTAYMELSSLRSEDTAVYYCARESPGYRYSFDVWDQGTLVTVSS VL: SYELTQPLSVSVALGQTARITCSGDAIGEKYVYWYQQKPGQAPVLVIYDDNNRPSGIPERFSGSNSGNTATLTISRAQAGDEADYYCASYDLQQARWVFGGGTKLTVL | weak affinity | – | 380000 M⁻¹ s⁻¹ | 0.0003 s⁻¹ | 990000 M⁻¹ s⁻¹ | 0.021 s⁻¹
3 | mAb10: anti-human ENTPD2 antibody of Table 1; VH SEQ ID NO: 132, VL SEQ ID NO: 125 (antibody, V domains shown) VH: QVQLVQSGAEVKKPGSSVKVSCKASGGTFDSYAVSWVRQAPGQGLEWMGRIVPWLGFTRYAQKFQGRVTITADESTSTAYMELSSLRSEDTAVYYCARESPGYRYSFDVWDQGTLVTVSS VL: SYELTQPLSVSVALGQTARITCSGDAIGEKYVYWYQQKPGQAPVLVIYDDNNRPSGIPERFSGSNSGNTATLTISRAQAGDEADYYCASYDLQQARWVFGGGTKLTVL | weak affinity | Weak binding | 340000 M⁻¹ s⁻¹ | 0.00024 s⁻¹ | 1.2e+06 M⁻¹ s⁻¹ | 0.018 s⁻¹
4 | mAb3: humanized anti-human ENTPD2 antibody from mAb17; VH SEQ ID NO: 33, VL SEQ ID NO: 29 (antibody, V domains shown) VH: QVQLVQSGAEVVKPGASVKISCKASGYTFTDYNMDWVKQAPGQRLEWIGDINPKYDISTYNQQFKGKATITVDTSASTAYMELSSLRSEDTAVYYCARRGFFLYYGINYYYFDVWGQGTLVTVSS VL: EIVLTQSPATLSASPGERITLSCSASSSVSYIHWYQQKPGQAPRLLIYSTSNLASGIPARFSGSGSGTFYTLTISSVEPEDAAVYYCHQWSSYPWTFGGGTKLEIK | – | No binding | 130000 M⁻¹ s⁻¹ | 0.00016 s⁻¹ | 450000 M⁻¹ s⁻¹ | 0.00098 s⁻¹
5 | mAb4: humanized anti-human ENTPD2 antibody from mAb16; VH SEQ ID NO: 46, VL SEQ ID NO: 57 (antibody, V domains shown) VH: QIQLQESGPGLVKPSQTLSLTCTVSGYSITSGYYWNWIRQHPGKGLEWIGYISYDADNNYNPSLKNRVTISRDTSKNQFSLKLSSVTAADTAVYYCAGGYYRYGLGSYRGSYYYVMDYWGQGTTVTVSS VL: ETVLTQSPATLSVSPGERATISCKASQSVDYEGHSYMNWYQQKPGQAPRLLIYAASNLESGIPARFSGSGSGTDFTLTISSVEPEDAATYYCQQSNEDPPTFGGGTKLEIK | – | No binding | 300000 M⁻¹ s⁻¹ | 0.00022 s⁻¹ | 140000 M⁻¹ s⁻¹ | 0.0057 s⁻¹
